The target of the test is T1, human MacroD2 macrodomain (aa 7–243), wild type (human, UniProt A1Z1Q3 7-243).
T1 sequence (looked up): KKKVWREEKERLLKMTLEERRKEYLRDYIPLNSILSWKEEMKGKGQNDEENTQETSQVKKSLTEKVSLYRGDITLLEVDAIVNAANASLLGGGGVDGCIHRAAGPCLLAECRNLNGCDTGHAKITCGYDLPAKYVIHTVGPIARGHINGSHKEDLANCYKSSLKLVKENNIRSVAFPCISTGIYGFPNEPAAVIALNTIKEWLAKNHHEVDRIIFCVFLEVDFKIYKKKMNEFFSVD
As to the kind of experiment: pull-down.

B1: GST-PARP10 catalytic domain (aa 818–1025), ADP-ribosylated (domain or fragment, UniProt Q53GL7 818-1025, looked up)
chain: NNLERLAENTGEFQEVVRAFYDTLDAARSSIRVVRVERVSHPLLQQQYELYRERLLQRCERRPVEQVLYHGTTAPAVPDICAHGFNRSFCGRNATVYGKGVYFARRASLSVQDRYSPPNADGHKAVFVARVLTGDYGQGRRGLRAPPLRGPGHVLLRYDSAVDCICQPSIFVIFHDTQALPTHLITCEHVPRASPDDPSGLPGRSPDT
modifications: mono-ADP-ribosylated (automodified; single ADPr units on glutamate residues); sites not stated
Regarding B1, the binding result is recorded as “binds”.

For the origin of these results see publication PMC7097781 (Nature Structural & Molecular Biology, 2013).
